Reference: publication PMC7815493 (Redox Biology, 2021)

Columns and labels:
[1] = target: the molecule itself; test: non-reducing SDS-PAGE and immunoblot
[2] = target: T1, HMGB1:LK:CFP, P09429; test: FRET or BRET; settings: remark: other sources report otherwise
T1 chain: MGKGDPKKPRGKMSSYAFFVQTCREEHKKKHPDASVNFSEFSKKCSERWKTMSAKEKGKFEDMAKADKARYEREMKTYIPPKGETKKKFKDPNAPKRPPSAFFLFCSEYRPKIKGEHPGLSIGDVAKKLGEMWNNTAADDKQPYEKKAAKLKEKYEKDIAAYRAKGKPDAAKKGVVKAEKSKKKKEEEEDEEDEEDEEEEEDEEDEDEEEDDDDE

[3] = target: T2, Six His-tagged HMGB1 recombinant protein, P09429; test: MALDI-TOF MS; settings: remark: other sources report otherwise
T2 chain: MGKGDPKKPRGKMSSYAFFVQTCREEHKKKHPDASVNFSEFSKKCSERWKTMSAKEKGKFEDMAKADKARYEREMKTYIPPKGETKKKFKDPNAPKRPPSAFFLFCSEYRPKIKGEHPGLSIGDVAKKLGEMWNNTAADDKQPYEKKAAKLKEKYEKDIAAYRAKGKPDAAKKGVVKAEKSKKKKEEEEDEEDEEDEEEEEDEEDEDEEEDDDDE

[4] = target: T2, Six His-tagged HMGB1 recombinant …; settings: remark: other sources report otherwise

B1: HMGB1 box B (aa 88-162) (domain or fragment, UniProt P09429 88-162, looked up)
chain: KFKDPNAPKRPPSAFFLFCSEYRPKIKGEHPGLSIGDVAKKLGEMWNNTAADDKQPYEKKAAKLKEKYEKDIAAY
binding result [1]: binds

B2: YFP:LK:HMGB1, P09429 1-215 (natural protein)
chain: MGKGDPKKPRGKMSSYAFFVQTCREEHKKKHPDASVNFSEFSKKCSERWKTMSAKEKGKFEDMAKADKARYEREMKTYIPPKGETKKKFKDPNAPKRPPSAFFLFCSEYRPKIKGEHPGLSIGDVAKKLGEMWNNTAADDKQPYEKKAAKLKEKYEKDIAAYRAKGKPDAAKKGVVKAEKSKKKKEEEEDEEDEEDEEEEEDEEDEDEEEDDDDE
FRET efficiency [2]: 17.1%

B3: Six His-tagged HMGB1 recombinant protein, P09429 1-215 (natural protein)
chain: MGKGDPKKPRGKMSSYAFFVQTCREEHKKKHPDASVNFSEFSKKCSERWKTMSAKEKGKFEDMAKADKARYEREMKTYIPPKGETKKKFKDPNAPKRPPSAFFLFCSEYRPKIKGEHPGLSIGDVAKKLGEMWNNTAADDKQPYEKKAAKLKEKYEKDIAAYRAKGKPDAAKKGVVKAEKSKKKKEEEEDEEDEEDEEEEEDEEDEDEEEDDDDE
stoichiometry N [3]: 2 | percent of molecules that are dimers [4]: 70%
